Laboratory results: the nanobody polyreactivity screen of Harvey et al. (2022)

Assay: yeast display, Sf9 membrane polyspecificity reagent, FACS + sequencing; frameworks hold sequencing errors
In short: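 A nanobody's polyreactivity label depends on the gate it was sorted from. Yeast display cells were stained with 10% biotinylated, detergent-solubilized Sf9 membrane reagent for 1 hour at 4 °C, enriched on streptavidin microbeads and sorted by FACS. The low and high (top ~1%) gates were set on anti-HA fluorescence for expression and streptavidin fluorescence for reagent binding.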

Sequence	polyreactivity (PSR sort gate)
QVQLVESGGGLVQAGGSLRLSCAASRLTFQQYAMGWYRQAPGKERELVAAITSDGASTNYADSVKGRFTISRDNAKNTVYLQMNSLKPEDTAVYYCAARRSSRQYRYDYWGQGTQVTVSS	high polyreactivity
QVQLVESGGGLVQAGGSLRLSCAASRLTFVGYAMGWYRQAPGKETALVAALTSSGGGTYYADSVKGRFTISRDNAKNPVYLQMNSLKPQDTALYYCAKVTRGSQYDYWGQGTEVTVSS	low polyreactivity
QVQLVESGGGLVQAGGSLRLSCAASRRIFYAYAMGWYRQAPGKEIELLATITGIGGSTYADSVKGRFTISRDNAKNTVNLQMNSLKPEDTAVYYCNAERGVYWGRYPYKYDYLGQGTQVTVSS	low polyreactivity
QVQLVESGGGLVQAGGSLRLSCAASRRIIYRSAMGWYRQAPGKERELLAAITSGDSTYYADSVKVRFTISRDNSKNTVFLQMNSLKPEDTAVYYCAADYLSRSPAYEHYYWGQGTQVTVSS	high polyreactivity
QVQLVESGGGLVQAGGSLRLSCAASRRTFANYAMGWYRQAPGKERELVAAISRSGGSTYYADSVKGRFTISRDNAKNSVYLQMKSLKPEDTAVYYCAARYVRQYYRAEDYWGQGTHVTVSS	high polyreactivity
QVQLVESGGGLVQAGGSLRLSCAASRRTFSYNTMGWYRQAPGTERELVARITWGGGSTNYADSVKGRFTISRDNAKNTVYLQMNSLKPEDTAVYYCAAGPSVPYGPQKVDYWGQGTQVTVSS	low polyreactivity
QVQLVESGGGLVQAGGSLRLSCAASRSIFGYNAMGWYRPAPGKEREFVAAIRWSSGSTYYADSVKGRFTISRDNAKNTVYLQMNSLKPEDTAVYYCATRQTYLYLGQGTQVTVSS	high polyreactivity
QVQLVESGGGLVQAGGSLRLSCAASRSIFRIYAMGWYRQAPGKERELVAGISKSGGSTYYADSVKGRFTISRDNAKNTVYLQMNSLKPEDTAVYYCNAGYNWSGLAVGRYGYDSWGQGTQVTVSS	low polyreactivity
QVQLVESGGGLVQAGGSLRLSCAASRSTFFHYAMGWNRQAPGKERELVAAISSDGITNYADSVKGRFTISRDNAKNTVYLQMNILIPEDTAVYYCNAETVSTVGLGYWGQGTQVTVSS	low polyreactivity
QVQLVESGGGLVQAGGSLRLSCAASRSTFNYYTMGWYRQAPGKERELVAAISRGGSTYYADSVKGRFTISRDNAKNTVYLQMNSLKPEDTAVYYCAATVYPRYFRKYDYWGQGTQVTVSS	high polyreactivity
QVQLVESGGGLVQAGGSLRLSCAASRSTFPKYAMGWNRKAPGKERELVASISVTTGSPYYADSVKGRFTISLDNAKNTVYLQKNSLKPEDTAVYYCAKRTYSRKFRGAYNYWGQGTQVSVSS	high polyreactivity
QVQLVESGGGLVQAGGSLRLSCAASRSTFRYYTMGWYRQSPGKERELVARISRSGGSTYYADSVKGRFTISRDNAKNTVYLQMNSLKPEDTSVYYCAALYYVKPGQRYDYWGQGTQVTVSS	high polyreactivity
QVQLVESGGGLVQAGGSLRLSCAASRSTFSDNAMGWYRQAPGKERELVAAISRSGGSTYYADSVKGRFTISRDTAKNTVYLQMNSLKPEDTAVYYCATKRVLTGYDSWGQGTQVTVSS	high polyreactivity
QVQLVESGGGLVQAGGSLRLSCAASRSTLSTYAMGWYRQAPGTERELVAAITWSDDSTYYADSVKGRFTISRDNAKNTVYLQMNSLKPEDTAVYYCAAEYISWFFGYDYWGQGTQVTVSS	high polyreactivity
QVQLVESGGGLVQAGGSLRLSCAASRYIFSRNAMGWYRQAPGKERELVAAISLRGGSTYFADSVKGRFTISRDNAKNTVYLQMNSLKPEDTAVYYCAAPLFSGYDYWGQGTQVTVSS	low polyreactivity
QVQLVESGGGLVQAGGSLRLSCAASVFISSWYDMGWYRQAPGKERQLVAAIRSSGGNTYYADSVKGRFTISRDNAKNTVYLQMNSLKPEDTAVYYCAKDWKSEDGGYYWGQGTQVTVSS	high polyreactivity
QVQLVESGGGLVQAGGSLRLSCAASVFTFSPNAMGWYRQAPGKERELVAAISKRGASTYYADSVKGRFTISRDNAKNTVYLQMNSLKPEDTAVYYCNVGASARKPYDYWGQGTQVTVSS	high polyreactivity
QVQLVESGGGLVQAGGSLRLSCAASVGTFRRYAKGWYREAPGKERELVAAISWTGGSTYYADSVKGRFTISRDNAKNNVYLQMNSLKPEDTAVYYCAAVGSSSSKGGYWGQGTQVTVSS	high polyreactivity
QVQLVESGGGLVQAGGSLRLSCAASVITFDVYAMGWYRPAPGKERELVAAISSVGGTYYADSVKGRFTISRDNAKNTVYLQMISLKPEDTAVYYCNTDGYVGSIRSGLYIYDYWGQGTQVTVSS	low polyreactivity
QVQLVESGGGLVQAGGSLRLSCAASVITFNYNARGWYRQAPGKERELVARITWSGTRTYYADSVKGRFTMSRDNANNTVYLQMNSLKPEDTGVYYCNAGPYARYYWGQGTQVTVSS	high polyreactivity
QVQLVESGGGLVQAGGSLRLSCAASVLIFEAYAMGWYRQAPAKERELVATINKSGGSTYYADSVKGRFTISRDNAKNTVYLQMNSLKPEDTAVYFCAAFFLLPSPWPSYWCWNGDYWGQRTQVTVSS	low polyreactivity
QVQLVESGGGLVQAGGSLRLSCAASVLIFYDNIGWYRQAPGKERELVAAIDSGGNTYADSVKGRFTISRDNAKNTVYLQMNSLKPEDTAVYYCAVDGGEFSSYGYWGQGTQVTVSS	low polyreactivity

Sequence	polyreactivity (PSR sort gate)
QVQLVESGGGLVQAGGSLRLSCAASVNTFWYYTMGWYRQAPGKERELVAAITGGGRTYYADSVKGRFTISRDNAKNSVYLQMNSLKPEDTAVYYCAKPWGSDFGSWGQGTQVTVSS	low polyreactivity
QVQLVESGGGLVQAGGSLRLSCAASVRIFEVYAMGWYRQAPGKERELVAAISSGGGSTYYADSVKGRFTISRDNAKNTVFLQMISLKPEDTAVYYCAADEVTKKNSFPRIMDYWGQGTQVTVSS	high polyreactivity
QVQLVESGGGLVQAGGSLRLSCAASVRIFRINTMGWYRQAPGKERELVAAIRTSGSSTYADSVKGRFTISRDNAKNTVYLQMNSLKPEDTAVYYCNTKYPGRGYYWGQGTQVTVSS	high polyreactivity
QVQLVESGGGLVQAGGSLRLSCAASVRTFYYYAMGWYRQAPGKERELVARISRGGSTNYADSVKGRFTISRDNAKNTVYLLMNSLKTEDTAVYYCAKSISYTGRYWGYDYWGQGTQVTVSS	high polyreactivity
QVQLVESGGGLVQAGGSLRLSCAASVSIFKGYAMGWYRQAPGKERELVAAITGSDGSTYADSVKGRFTISRDNAKNTVYLQMNSLKPEDTAVYYCNTGGWTRYRPPGYEWNWYDYWGQGTQVTVSS	low polyreactivity
QVQLVESGGGLVQAGGSLRLSCAASVSIIPHNTMGWYRQAPGKEMELVAAISRSGGSTYYADSVKGRFTISRDNGKKTVYLQMNSLKPEDTAVYYCSSDSYDVGHQVVSEERLYDYWGQGTQVTVSS	low polyreactivity
QVQLVESGGGLVQAGGSLRLSCAASVSTFEANAMGWYRQAPGKERELVAVITWTGGSTYYADSVKGRFTISRDYAKNNVYLQMNSLKPEDTAVYYCAAKFHRFAWYSHYDYWGQGTQVTVSS	low polyreactivity
QVQLVESGGGLVQAGGSLRLSCAASVSTFTFNDMGWSRQAPGKERELVAAITSGGSTTYADSVKGRFTISRDNAKNTVYLQMNSLKPEDTAVYYCAADYVYFYFYGYASWGQGTQVTVSS	low polyreactivity
QVQLVESGGGLVQAGGSLRLSCAASVSTIGTYAMGWYRQAPGKERELVAAISTGGSTYYADSVKGRFTISRANAKNTVHLQMNSLKPEDTAVYYCAALADYVRRASDYWGQGTQVTVSS	low polyreactivity
QVQLVESGGGLVQAGGSLRLSCAASVYIFVRNALGWYRQAPGKERELVAAISGSGGSTYYADSVKGRFTISRDNAKNTVSLQMNSLIPEDTAVDYCAADYATVTWRGIAYDYWGQGTQVTVSS	low polyreactivity
QVQLVESGGGLVQAGGSLRLSCAASVYTFPSYVMGWYRQAPGKERELVAAISSGSRTYYADSVKGRFTISRDNAKNTVYLQMNSLKPEDTAVYYCNARGFPGKFGYWGPGTQVTVSS	high polyreactivity
QVQLVESGGGLVQAGGSLRLSCAASVYTFYKYAMGWYRQAPGKERELVAAISSSGGSTYYADSVKGRFTISRDNAKNTVYLQMNSLKPEDTAVYYCAAYVYSNDYDYWGQGTQVTVSS	high polyreactivity
QVQLVESGGGLVQAGGSLRLSCAATGFFFGPYVMGWYRQATGKERELVAVITWTGGSTSYADSVKGRFTISRDNAKNTVYLQMNSLKREDTAVYYCAARTHQYRSRSYYYWGQGTQVTVSS	high polyreactivity
QVQLVESGGGLVQAGGSLRLSCAATGFIFTDNVMGWYRQAPGKERELVAAISRRGGSTYYADSVKGRFTISRDNAKNTVYLQMNSLKPEDTAVYYCNVARQSYLLDYWGQGSQVTVSS	high polyreactivity
QVQLVESGGGLVQAGGSLRLSCAATGFTFCANAMGWYRQAPGKERELVAAISWTGVNTYYADSVKGRFTISRDNAKNTVYLQMNSLKPEDTAVYSCAAEQWSTGYYYWGQGTQVTVSS	high polyreactivity
QVQLVESGGGLVQAGGSLRLSCAATGFTFIHYGMGWYRQAPGKERELVAAITWRGDRTYADSVKGRFTISRDNANNTVYLQMNSLKPEDTAVYYCAAVSANQDFDYWGQGTQVTVSS	high polyreactivity
QVQLVESGGGLVQAGGSLRLSCAATGFTFTGNAMGWYRQAPGKQRELVAAINTGTGGSTYYADSVKGRFTISRDNAKNTVYLQMNSLKPVDTAVYYPIGVGGDYDYWGQGTQVTVSS	low polyreactivity
QVQLVESGGGLVQAGGSLRLSCAATGFTFTLYAMGWYRQAPGKERALVAAITRLGTSTYYADSVKGRFTISRDNAKNTVYLQMNNLKPEDTAVYYCAARGGGGQRYDYWGHGTQVTVSS	high polyreactivity
QVQLVESGGGLVQAGGSLRLSCAATGFTFYGYAMGWYRQAPGKERELVAAISRRSSSTYYADSVKGRFTISRDNAKNTVYLQMNSLKPEDTAVCYCNTVFQRSGYAAGVDYWGQGTQVTVSS	high polyreactivity
QVQLVESGGGLVQAGGSLRLSCAATGFTSYLYTMGGYRQAAGKERELVAAISNSGGNTYYADSVKGRFTISRDNANNTVYLQMNSLKPEDTAVYYCAARLFAAKYRYGYWGQGTQVTVSS	high polyreactivity
QVQLVESGGGLVQAGGSLRLSCAATGIISQYYAMGWYRQQPGKESELDAAISRSGGSTFYADSVKGRFTISRDNAQNTVYLQMNSLKPEDTAVYYCNAESRFRPYTSRYDYWGQGTQVTVSS	high polyreactivity
